Experimental data from paper PMC7737156, “A 3.4-Å cryo-electron microscopy structure of the human coronavirus spike trimer computationally derived from vitrified NL63 virus particles” (QRB Discovery, 2020).

Molecular target: the molecule itself
Experiment: cryo-EM structure; single-particle cryo-EM of purified, vitrified HCoV-NL63 virions without chemical fixative; spikes extracted computationally from the micrographs; refined with C3 symmetry (3.4 Å) and without (3.7 Å); virus resuspension buffer 20 mM Tris pH 8.0, 120 mM NaCl, 1 mM EDTA

B1: HCoV-NL63 coronavirus spike glycoprotein (natural protein)
chain: CNSNANLSMLQLGVPDNSSTIVTGLLPTHWFCANQSTSVYSANGFFYIDVGNHRSAFALHTGYYDANQYYIYVTNEIGLNASVTLKICKFSRNTTFDFLSNASSSFDCIVNLLFTEQLGAPLGITISGETVRLHLYNVTRTFYVPAAYKLTKLSVKCYFNYSCVFSVVNATVTVNVTTHNGRVVNYTVCDDCNGYTDNIFSVQQDGRIPNGFPFNNWFLLTNGSTLVDGVSRLYQPLRLTCLWPVPGLKSSTGFVYFNATGSDVNCNGYQHNSVVDVMRYNLNFSANSLDNLKSGVIVFKTLQYDVLFYCSNSSSGVLDTTIPFGPSSQPYYCFINSTINTTHVSTFVGILPPTVREIVVARTGQFYINGFKYFDLGFIEAVNFNVTTASATDFWTVAFATFVDVLVNVSATNIQNLLYCDSPFEKLQCEHLQFGLQDGFYSANFLDDNVLPETYVALPIYYQHTDINFTATASFGGSCYVCKPHQVNISLNGNTSVCVRTSHFSIRYIYNRVKSGSPGDSSWHIYLKSGTCPFSFSKLNNFQKFKTICFSTVEVPGSCNFPLEATWHYTSYTIVGALYVTWSEGNSITGVPYPVSGIREFSNLVLNNCTKYNIYDYVGTGIIRSSNQSLAGGITYVSNSGNLLGFKNVSTGNIFIVTPCNQPDQVAVYQQSIIGAMTAVNESRYGLQNLLQLPNFYYVSNGGNNCTTAVMTYSNFGICADGSLIPVRPRNSSDNGISAIITANLSIPSNWTTSVQVEYLQITSTPIVVDCATYVCNGNPRCKNLLKQYTSACKTIEDALRLSAHLETNDVSSMLTFDSNAFSLANVTSFGDYNLSSVLPQRNIRSSRIAGRSALEDLLFSKVVTSGLGTVDVDYKSCTKGLSIADLACAQYYNGIMVLPGVADAERMAMYTGSLIGGMVLGGLTSAAAIPFSLALQARLNYVALQTDVLQENQKILAASFNKAINNIVASFSSVNDAITQTAEAIHTVTIALNKIQDVVNQQGSALNHLTSQLRHNFQAISNSIQAIYDRLDSIQADQQVDRLITGRLAALNAFVSQVLNKYTEVRGSRRLAQQKINECVKSQSNRYGFCGNGTHIFSIVNSAPDGLLFLHTVLLPTDYKNVKAWSGICVDGIYGYVLRQPNLVLYSDNGVFRVTSRVMFQPRLPVLSDFVQIYNCNVTFVNISRVELHTVIPDYVDVNKTLQEFAQNLPKYVKPNFDLTPFNLTYLNLSSELKQLEAKTASLFQTTVELQGLIDQINSTYVDLKLLNRFENYIKWPWWVWLIISVVFVVLLSLLVFCCLSTGCCGCCNCLTSSMRGCCDCGSTKLPYYEFEKVHVQ
modifications: glycosylated; N-linked glycan density at Asn24 and Asn203 and O-linked glycan density at Ser496 newly seen here, besides the glycan sites seen before in EMD-8331
notes: Spike glycoprotein of human coronavirus NL63, membrane-anchored on native virions, pre-fusion state; model built from PDB 5SZS with residues 883-889 and 993-1000 added; Native spike on the virion, no stabilising mutations and no tags; the cited ectodomain structure PDB 5SZS is another construct (purified ectodomain made in insect cells); also called S trimer; HCoV-NL63 spike (S) trimer; source: …
  stoichiometry N: 3
